Data as given in article PMC7034192.

Tests used:
[1] = target: M1R L131A (UniProt P11229)
[2] = target: M2R L129A (UniProt P08172)
Sequence of UniProt P08172 (P08172 whole entry L129A): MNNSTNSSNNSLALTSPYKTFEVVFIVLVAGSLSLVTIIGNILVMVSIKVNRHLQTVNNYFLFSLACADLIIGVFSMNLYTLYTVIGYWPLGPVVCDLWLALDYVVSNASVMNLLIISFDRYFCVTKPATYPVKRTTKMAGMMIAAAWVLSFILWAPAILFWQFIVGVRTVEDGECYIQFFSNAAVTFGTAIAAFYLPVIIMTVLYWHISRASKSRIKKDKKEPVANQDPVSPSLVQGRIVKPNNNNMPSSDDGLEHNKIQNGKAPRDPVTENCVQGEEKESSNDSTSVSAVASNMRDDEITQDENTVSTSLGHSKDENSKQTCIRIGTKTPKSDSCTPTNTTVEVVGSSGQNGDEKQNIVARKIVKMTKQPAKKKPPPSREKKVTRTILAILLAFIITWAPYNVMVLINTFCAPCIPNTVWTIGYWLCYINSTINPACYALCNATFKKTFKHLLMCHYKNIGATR

coupling with G11, percent of wild type (fig. S10) (% of wild type) [1] | coupling to GoA, percent of wild type (fig. S10) (% of wild type) [2] | Substance
17 |  | G_(11iN) heterotrimer (Gα_(11iN), Gβ1, Gγ2) (from UniProt P63096 1-29; P29992 36-359; P62873 2-340; P59768 1-71) (complex)
 | 49 | G_(oAiN) heterotrimer (Gα_(oAiN), Gβ1, Gγ2) (from UniProt P09471 1-354; P62873 2-340; P59768 1-71) (complex)
